Test results published in patent US20240307536A1.
Values belong to the substance of their own block, whether it stands above or below them.

Columns and labels:
Assay in all cases: cell-based or functional assay
[1] = biological target: MHC class I on MV411 cells (human)
[2] = biological target: CXCR3 on SAK cells (human) (UniProt P49682)
[3] = biological target: CXCR2 on SAK cells (human) (UniProt P25025)
Sequence of UniProt P25025 (P25025 whole entry): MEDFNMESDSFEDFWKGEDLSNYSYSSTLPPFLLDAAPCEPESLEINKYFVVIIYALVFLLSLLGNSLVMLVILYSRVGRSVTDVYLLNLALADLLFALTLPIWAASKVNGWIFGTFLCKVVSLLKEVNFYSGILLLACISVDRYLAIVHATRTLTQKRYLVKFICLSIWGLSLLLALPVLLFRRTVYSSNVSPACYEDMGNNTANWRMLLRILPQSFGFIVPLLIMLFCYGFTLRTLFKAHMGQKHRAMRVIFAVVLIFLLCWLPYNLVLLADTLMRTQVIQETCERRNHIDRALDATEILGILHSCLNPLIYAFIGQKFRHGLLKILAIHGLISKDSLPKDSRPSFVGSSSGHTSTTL

Sequence of UniProt P49682 (P49682 whole entry): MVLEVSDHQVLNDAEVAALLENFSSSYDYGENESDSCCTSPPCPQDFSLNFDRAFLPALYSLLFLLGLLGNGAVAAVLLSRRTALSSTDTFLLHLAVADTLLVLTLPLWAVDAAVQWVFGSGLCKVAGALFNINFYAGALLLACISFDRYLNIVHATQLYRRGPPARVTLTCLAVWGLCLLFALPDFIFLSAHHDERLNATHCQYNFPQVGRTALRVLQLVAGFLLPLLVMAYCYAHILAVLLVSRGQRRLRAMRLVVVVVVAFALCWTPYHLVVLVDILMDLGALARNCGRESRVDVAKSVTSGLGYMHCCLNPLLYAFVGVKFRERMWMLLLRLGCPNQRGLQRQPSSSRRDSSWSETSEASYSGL

Substance: anti-MHC I antibody (W6/32 clone, Biolegend)
- cytotoxic activity of SAK cells against MV411 cells kept in the presence of 1 ug/ml anti-MHC I antibody, CFSE-based cytotoxicity assay [1]: > 40%

- Transwell migration of SAK cells within four hours, percentage of the input cells (500 ng/ml IP-10) [2]: 30%
Substance: IP-10 (PeproTech EC) (from UniProt P02778 22-98) (ligand)

- Transwell migration of SAK cells within four hours, percentage of the input cells (100 ng/mL IL-8) [3]: 3%
Substance: rhIL-8 (PeproTech EC) (from UniProt P10145 28-99) (ligand)
